± gives the standard deviation of the averaged measurements.
Legend:
[1] = PET hydrolysis product formed (TPA+MHET+BHET, UV-Vis) per mg enzyme (mmol/mg enzyme); higher = more PET depolymerisation activity; extreme values may be limits of the assay; details: 24 h
Procedure: (§1)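 Purified PET hydrolases, 2.5 ug enzyme on 3.5 mg amorphous PET film (aFilm) or crystalline PET powder (cryPow) in 0.5 mL of 50 mM buffer (NaCitrate pH 4.5/5.5, NaPhosphate 6.5/7.5, glycine 8.5/9.5) at 60 or 70 C with shaking for 24 h. Total aromatic product by UV-Vis (260/280 nm, blank-subtracted, normalised per mg enzyme) and individual TPA, MHET, BHET concentrations by UHPLC-DAD at 240 nm; duplicate reactions.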

[2] = terephthalic acid (TPA) released, HPLC; higher = more TPA released; extreme values may be limits of the assay; details: 24 h
Procedure: as §1

[3] = PET hydrolysis product formed (TPA+MHET+BHET, UV-Vis) per mg enzyme (mmol/mg enzyme); higher = more PET depolymerisation activity; extreme values may be limits of the assay; details: 2 h
Procedure: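 Purified PET hydrolases (His-SUMO cleaved, E. coli C41(DE3) small-scale expression), 2.5 ug enzyme on 3.5 mg amorphous PET film (aFilm) or crystalline PET powder (cryPow) in 0.5 mL of 50 mM buffer (NaCitrate pH 4.5/5.5, NaPhosphate 6.5/7.5, glycine 8.5/9.5) at 60 or 70 C with shaking for 2 h. Soluble aromatic products (TPA+MHET+BHET) were quantified by UV-Vis at 260/280 nm, blank-subtracted against the no-enzyme control, and normalised per mg enzyme; duplicate reactions.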

[4] = MHET released, HPLC; higher = more MHET released; extreme values may be limits of the assay; details: 24 h
Procedure: as §1

ANPYERGPNPTDALLEARSGPFSVSEENVSRLSASGFGGGTIYYPRENNTYGAVAISPGYTGTEASIAWLGERIASHGFVVITIDTITTLDQPDSRAEQLNAALNHMINRASSTVRSRIDSSRLAVMGHSMGGGGSLRLASQRPDLKAAIPLTPWHLNKNWSSVTVPTLIIGADLDTIAPVATHAKPFYNSLPSSISKAYLELDGATHFAPNIPNKIIGKYSVAWLKRFVDNDTRYTQFLCPGPRDGLFGEVEEYRSTCPF [TfCut2]
Details | MHET released, [4] [mM] | PET hydrolysis product formed, [1] | PET hydrolysis product formed, [3] | terephthalic acid, [2] [mM]
PET substrate: aFilm, 60 °C, pH 4.5 | 0 | 0 | 0 | 0
PET substrate: aFilm, 60 °C, pH 5.5 | 0.0544 ± 0.017 | 0.0295 ± 0.0072 | 0 | 0.0433 ± 0.016
PET substrate: aFilm, 60 °C, pH 6.5 | 0.0658 ± 0.012 | 0.0361 ± 0.011 | 0.00338 ± 0.0048 | 0.0508 ± 0.0026
PET substrate: aFilm, 60 °C, pH 7.5 | 0.213 ± 0.06 | 0.111 ± 0.025 | 0.0101 ± 0.0042 | 0.186 ± 0.065
PET substrate: aFilm, 60 °C, pH 8.5 | 0.105 ± 0.011 | 0.0556 ± 0.0097 | 0.00697 ± 0.00079 | 0.0862 ± 0.0028
PET substrate: aFilm, 60 °C, pH 9.5 | 0.143 ± 0.016 | 0.133 ± 0.015 | 0.0114 ± 0.0033 | 0.454 ± 0.0053
PET substrate: aFilm, 70 °C, pH 4.5 | 0 | 0 | 0 | 0
PET substrate: aFilm, 70 °C, pH 5.5 | 0.00251 ± 0.0036 | 0 | 0 | 0
PET substrate: aFilm, 70 °C, pH 6.5 | 0.00766 ± 0.0026 | 0.0032 ± 0.0045 | 0 | 0
PET substrate: aFilm, 70 °C, pH 7.5 | 0 | 0 | 0.00351 ± 0.005 | 0.00319 ± 0.0045
PET substrate: aFilm, 70 °C, pH 8.5 | 0.0146 ± 0.00012 | 0.0109 ± 0.00071 | 0.00376 ± 0.0053 | 0.00941 ± 0.00042
PET substrate: aFilm, 70 °C, pH 9.5 | 0 | 0.0072 ± 0.0013 | 0.00877 ± 0.00018 | 0.03467 ± 8.1e-05
PET substrate: cryPow, 60 °C, pH 4.5 | 0 | 0 | 0 | 0
PET substrate: cryPow, 60 °C, pH 5.5 | 0.0126 ± 0.0025 | 0 | 0 | 0.0031 ± 0.0044
PET substrate: cryPow, 60 °C, pH 6.5 | 0.0226 ± 0.012 | 0.00709 ± 0.01 | 0 | 0.00386 ± 0.0055
PET substrate: cryPow, 60 °C, pH 7.5 | 0.104 ± 0.087 | 0.0369 ± 0.026 | 0 | 0.0408 ± 0.031
PET substrate: cryPow, 60 °C, pH 8.5 | 0.0471 ± 0.011 | 0.0198 ± 0.0049 | 0 | 0.0159 ± 0.004
PET substrate: cryPow, 60 °C, pH 9.5 | 0.0249 ± 0.026 | 0.0223 ± 0.019 | 0.00389 ± 0.0055 | 0.0959 ± 0.083
PET substrate: cryPow, 70 °C, pH 4.5 | 0 | 0 | 0 | 0
PET substrate: cryPow, 70 °C, pH 5.5 | 0 | 0 | 0 | 0
PET substrate: cryPow, 70 °C, pH 6.5 | 0 | 0 | 0 | 0
PET substrate: cryPow, 70 °C, pH 7.5 | 0 | 0 | 0 | 0
PET substrate: cryPow, 70 °C, pH 8.5 | 0.00527 ± 0.00037 | 0 | 0 | 0
PET substrate: cryPow, 70 °C, pH 9.5 | 0 | 0 | 0 | 0.0139 ± 0.0022

Source: the supplement of paper PMC11196671
